According to patent US20260275317A1, “CHIMERIC ENDOLYSINS WITH ACTIVITY AGAINST STREPTOCOCCI AND STAPHYLOCOCCI” (UNIVERSITEIT GENT, priority 2023, published 2026):

What was measured:
[1] = tested on: S. uberis GCC ST-143 biofilm; assay: Biofilm eradication assay; type: cell-based, Streptococcus uberis; conditions: 1.5 μM, 2 h30, 37° C.
Protocol: Biofilms were grown by transferring mid-log phase bacteria (OD600=0.6) grown in brain heart infusion (BHI) (Oxoid, Belgium) containing 0.25% α-D-glucose (ThermoFisher Scientific, USA) to a nunclon delta-treated, U-shaped-bottom 96-well microplate (ThermoFisher Scientific, USA). This whole was incubated for 21-24 h in a box containing a wet tissue. Subsequently, media and planktonic cells were removed and 1.5 µM of chimeric endolysin was allowed to eradicate the biofilms during 2 h30 at 37° C. on a shaker at 120 rpm. […] Biomass was fixated with 100% ethanol (ThermoFisher Scientific, USA) and stained with crystal violet (0.1% crystal violet (Sigma-Aldrich, USA), 5% methanol and isopropanol (ThermoFisher Scientific, USA) in PBS. Triple washing with PBS by inverting the plate was executed before solubilizing the stained biomass in 30% acetic acid (Chem-Lab, Belgium). OD590 nm was measured using a CLARIOstar Plus plate reader (BMG Labtech, The Netherlands). Logarithmic reductions were determined by scraping biomass from the wells with a sterile tooth picker followed by resuspension in PBS, which was subsequently serially diluted and spotted on BHI-agar. CFU/mL were counted after overnight incubation at 37° C.

[2] = tested on: S. agalactiae; assay: Turbidity reduction assay (TRA), S. agalactiae; type: cell-based, Streptococcus agalactiae
Protocol: (§1) Concerning the time killing assay, an overnight bacterial culture was diluted 1:10 for S. uberis, S. agalactiae-& dysgalactiae or 1:100 for S. aureus in PBS or UHT-pasteurized whole cow's milk. A volume of 10 μL thereof was combined with an equal amount of chimeric endolysin in PBS (or only PBS as negative control) in triplicate and incubated in a covered 96-well microtiter plate at 37° C. for 2 h. The dose was low (i.e. 0.25 μM), but this was chosen to differentiate between less and better performing variants, consequently allowing a ranking. Finally, these fractions were serially diluted 1:10 in PBS. 5 μL of each fraction was spotted on TSA or BHI-agar and incubated overnight at 37° C. The following day, colony forming units (CFU) were counted and converted to CFU/mL to calculate logarithmic reductions in comparison with the negative control. The relative scores were calculated by dividing the observed logarithmic reduction for each endolysin by the maximal reduction observed for that specific condition and strain. Next, this value was divided by the number of conditions and strains tested (i.e., 8=4 bacterial strains×2 conditions (PBS/UHT-milk)). As such, the best performing candidate in each individual assay received a score of 0.125 (=(1/1)/8). […] Turbidity reduction assays were performed by combining 100 μL of overnight grown bacterial cells with an equal volume of purified enzyme at the desired concentration. Bacterial cells were washed with PBS and resuspended in a 1:1 ratio with enzyme to an OD600 of approximately 1.0. Next, the OD600 was measured using a Tecan infinite 200 PRO plate reader (Tecan, Switzerland) every 15 seconds at 37° C., shaking the 96-well plate between each measurement.
(§2) Time killing and turbidity reduction assays were performed as previously described in 1.3.1.

[3] = tested on: MAC-T cells; type: cell-based, bovine; conditions: 2.5 μM
Protocol: MAC-T cells were seeded in a 6-well plate at 300.000 cells/well and grown to 100% confluency. Next, cell culture medium was replaced by prewarmed NC5 in DMEM (buffer exchange performed at 4-8° C. by means of a Pierce™ Protein Concentrator PES 10 kDa MWCO) and allowed to incubate during 1 h at 37° C. and 5.0% CO2. DMEM alone served as the negative control. Following incubation, the supernatant was aspirated and cells were washed 5× with prewarmed dPBS. Cells were then harvested, pelleted and washed as previously described, followed by lysis in ice-cold 0.1% triton X-100 (Sigma-Aldrich, USA) in dPBS. The cell lysates were denaturized and subjected to SDS-PAGE before blotting to a nitrocellulose membrane (Novolab, Belgium). The membrane was thereafter incubated during 1 h in dPBSM5 as blocking buffer. Subsequently, the primary antibody being mouse monoclonal IgG anti-HIS5 (Sigma-Aldrich, USA) was added to the blocking buffer at 1:2000 and allowed to incubate under the same conditions for another hour. The nitrocellulose membrane was then washed 3× with dPBST and incubated during 30 min with the secondary antibody being HRP conjugated goat monoclonal anti-mouse IgG (ImTec Diagnostics, Belgium) diluted 1:1000 in dPBST. […]

[4] = tested on: S. dysgalactiae; assay: Turbidity reduction assay (TRA), S. dysgalactiae; type: cell-based, Streptococcus dysgalactiae
Protocol: as §1, §2

B1: NC5: chimeric endolysin SEQ ID NO: 17; HIV-1 TAT + PlySs2 CHAP + Ply1081 CW_7 + PlySs9 amidase_3 (protein)
chain: MYGRKKRRQRRRGATTVNEALNNVRAQVGSGVSVGNGECYALASWYERMISPDATVGLGAGVGWVSGAIGDTISAKNIGSSYNWQANGWTVSTSGPFKAGQIVTLGATPGNPYGHVVIVEAVDGDRLTILEQNYGGKRYPVRNYYSAASYRQQVVHYITPPGTVAQSAPNLAGAGIDQLVQETLAGKYGNGEQRKAALGSQYQAVMAVINGKATAPKKTVDQLAQEVIQGKHGNGEDRKKSLGPDYDAVQKRVTEILKGSPSGNIPKTPSDAPKSEVVNSSTEPKTEETGANGKATDTKITKGSGKHLVICGHGQGRTGYDPGAVNAKLGITEAGKVRELSKLMSKYSGQQIDFITEQNVYDYRSITSIGKGYDSITELHFNAFNGSAKGTEVLIQSSLEADKEDMAILSLLSRYFQNRGIKKVDWLYNANQAASRGYTYRLVEIAFIDNEQDMAIFENKKEDIAKGLVSAITGVEVKTIVPSPPSSTVGSSGTPSKSIYLVGDSLRVLPHATHYQTGQKIANWVKGRTYKILQVKNVHQSNSKRAYLLDGIKSWVLEQDVEGTTKGHSKYHHHHHH
[1]
  reduction of biofilm mass (crystal violet): significant (p<0.001) reduction of the biofilm mass
  Δ Log10 reduction of biofilm CFU: 1.17±0.39 Log10
[2]; S. agalactiae 1, 0.3 μM
  lysis speed (ΔOD600/min)/μM: 0.15 (ΔOD600/min)/μM
[2]; S. agalactiae 1, 1 h, 0.3 μM
  ΔOD600: 0.42
[2]; S. agalactiae 2, 0.3 μM
  lysis speed (ΔOD600/min)/μM: 0.08 (ΔOD600/min)/μM
[2]; S. agalactiae 2, 1 h, 0.3 μM
  ΔOD600: 0.39
[2]; S. agalactiae 3, 0.3 μM
  lysis speed (ΔOD600/min)/μM: 0.12 (ΔOD600/min)/μM
[2]; S. agalactiae 3, 1 h, 0.3 μM
  ΔOD600: 0.41
[2]; three clinical S. agalactiae isolates, 0.3 μM
  ΔOD600, reductions up to: up to 0.39±0.02
[3]
  stability after incubation with MAC-T cells (SDS-PAGE of supernatant): neither disintegrated nor precipitated after incubation with MAC-T cells
[4]; S. dysgalactiae 1, 0.3 μM
  lysis speed (ΔOD600/min)/μM: 0.25 (ΔOD600/min)/μM
[4]; S. dysgalactiae 1, 1 h, 0.3 μM
  ΔOD600: 0.48
[4]; S. dysgalactiae 2, 0.3 μM
  lysis speed (ΔOD600/min)/μM: 0.30 (ΔOD600/min)/μM
[4]; S. dysgalactiae 2, 1 h, 0.3 μM
  ΔOD600: 0.66
[4]; S. dysgalactiae 3, 0.3 μM
  lysis speed (ΔOD600/min)/μM: 0.25 (ΔOD600/min)/μM
[4]; S. dysgalactiae 3, 1 h, 0.3 μM
  ΔOD600: 0.51
[4]; three clinical S. dysgalactiae isolates, 0.3 μM
  ΔOD, reductions up to: ≤ 0.48±0.03
